# Reference: article PMC5300155, “Biochemical and biophysical investigations of the interaction between human glucokinase and pro-apoptotic BAD” (PLoS ONE, 2017)
# “Also recorded” adds a separate entry of the source.
# T1: GCK (Homo sapiens, UniProt P35557)
# T1 construct: hexahistidine (N); made in house; host or cells: glucokinase auxotroph BM5340(DE3)
# T1 sequence (P35557 1-465): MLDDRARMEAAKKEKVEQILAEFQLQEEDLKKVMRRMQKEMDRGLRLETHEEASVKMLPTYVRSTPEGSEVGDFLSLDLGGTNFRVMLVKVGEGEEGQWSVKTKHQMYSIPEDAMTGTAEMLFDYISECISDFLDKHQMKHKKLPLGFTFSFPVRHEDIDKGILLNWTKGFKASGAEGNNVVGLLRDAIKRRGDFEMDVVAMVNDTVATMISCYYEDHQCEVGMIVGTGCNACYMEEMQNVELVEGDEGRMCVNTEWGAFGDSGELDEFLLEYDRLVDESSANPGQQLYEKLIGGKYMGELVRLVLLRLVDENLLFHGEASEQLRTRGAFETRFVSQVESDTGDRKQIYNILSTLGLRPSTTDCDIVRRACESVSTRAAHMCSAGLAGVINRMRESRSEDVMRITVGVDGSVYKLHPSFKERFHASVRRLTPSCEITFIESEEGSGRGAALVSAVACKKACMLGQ
# T2: human pancreatic GCK (Homo sapiens, UniProt P35557)
# T2 construct: hexahistidine (N); made in house; host or cells: glucokinase auxotroph BM5340(DE3)
# T2 sequence (P35557 1-465): T1 sequence (P35557 1-465)
# B1: BAD-GST: recombinant human BAD with N-terminal hexahistidine tag and C-terminal GST fusion, TEV consensus sequence between (protein)
# chain: MFQIPEFEPSEQEDSSSAERGLGPSPAGDGPSGSGKHHRQAPGLLWDASHQQEQPTSSSHHGGAGAVEIRSRHSSYPAGTEDDEGMGEEPSPFRGRSRSAPPNLWAAQRYGRELRRMSDEFVDSFKKGLPRPKSAGTATQMRQSSSWTRVFQSWWDRNLGRGSSAPSQ
# modifications: left off: His6, N-terminal, state not stated | GST, C-terminal, kept
# How the values were obtained:
# GCK = target: T1, GCK; assay: GCK activity, microplate G6PDH-linked assay as described by Szlyk et al. (37°C); assay type: biochemical; conditions: GCK 7.5 nM; for Effect on GCK Vmax: either assay (routine and Szlyk microplate), peptide 5 μM, 37°C in microplate assay
# Protocol: Steady state kinetics were also performed as described by Szlyk, et al.[13]. Briefly, G6PDH-linked assays were performed in clear 96-well plates at 37°C with a SpectraMax M5 microplate reader (Molecular Devices) recording absorbance at 340 nm every 30 s. Reaction mixtures contained GCK (7.5 nM), HEPES (100 mM, pH 7.4), KCl (150 mM), MgCl2(6 mM), DTT (1 mM), NAD (1 mM), BSA (0.05%), G6PDH (2.5 U), glucose (0.5–100 mM), and ATP (5 mM) in the presence or absence of BAD-GST S118D variant (5 μM) or phosphorylated BAD BH3 peptide (5 μM) in a final volume of 100 μL.
# GCK (7.5 nM) was assayed in the presence of A. S118D BADGST (5 μM) or B. pBH3 (5 μM) in a 96 well plate using a microplate reader. Buffer conditions were as follows: Ref [13]: 100 mM Hepes, pH 7.4; 150 mM KCl; 1 mM NAD+; 0.05% BSA; 6 mM MgCl2; 1 mM DTT; 2.5 U G6PDH; 5 mM ATP. Optimal GCK conditions: 100 mM Hepes, pH 7.4; 150 mM KCl; 1 mM NADP+; 6 mM MgCl2; 10 mM DTT; 1.5 U G6PDH; 5 mM ATP. (EPS) Click here for additional data file.
# [1] = Analytical ultracentrifugation sedimentation velocity (oligomerization, shape); assay type: physicochemical; conditions: 20°C, 50,000 x g
# Protocol: (§1) Sedimentation velocity experiments were conducted with an Optima XLI Ultracentrifuge (Beckman Coulter) using a four-hole rotor with three 420 μL samples in standard double-sector Epon centerpieces equipped with sapphire windows. Absorbance and interference data were collected simultaneously. Size-exclusion purified proteins were concentrated to OD280 nm = 0.3–1.0 prior to centrifugation. For complex formation, proteins were mixed in a 1:1 molar ratio in BAD buffer (0.1 M Tris, 0.1 M KCl, 0.5 M arginine, 2.5 mM CHAPS, 5 mM TCEP, 10% glycerol, pH 8.5) and incubated on ice 30 min prior to the start of the experiment. Experiments were carried out at 20°C and 50,000 x g. Data were analyzed with Ultrascan III software using a minimum of 70 scans per sample for analysis. Van Holde-Weischet analysis was performed to obtain S20,W values.
# human pancreatic GCK [2] = target: T2, human pancreatic GCK; assay: Analytical ultracentrifugation sedimentation velocity of equimolar mixtures with GCK; assay type: binding; conditions: equimolar mixture, BAD buffer pH 8.5, 20°C, 50,000 x g
# Protocol: as §1
# [3] = Aggregation in refolding buffers (spin-filter assay); assay type: physicochemical; conditions: CHAPS (2.5 mM) and arginine (0.5 M)
# Protocol: To determine buffer conditions for BAD-GST refolding, we made use of a spin-filter assay developed by Bondos and Bicknell. Purified protein was collected after size-exclusion chromatography and diluted into test buffers containing various stabilizers and detergents, including Triton-X (0.2%), CHAPS (1.25–6.0 mM), arginine (0.1–0.6 M), glycerol (20%) or urea (1.5 M). After overnight incubation at 4°C, diluted protein was filtered across a 100,000 MWCO microconcentrator (Amicon Ultra 0.5, EMD Millipore) at 14,000 x g. Concentrate was considered aggregated protein, while flow through was considered non-aggregated protein. Concentrate and flow through were resuspended to equal volumes and analyzed via SDS-PAGE; protein was visualized with SYPRO Ruby stain on a fluorescence imaging scanner. ImageJ software was used to measure ratios of non-aggregated to aggregated protein [26].
# Bcl-xL = target: T3, Bcl-xL (Homo sapiens, UniProt Q07817, DEL45-84); assay: Size-exclusion chromatography of 1:1 mixture with Bcl-xL; assay type: binding; conditions: 1:1 mixture of purified Bcl-xL and BAD-GST; BAD buffer pH 8.5, 4°C
# T3 construct: made in house
# Protocol: (§2) Size-exclusion chromatography was performed on a HiPrep 16/60 Sephacryl S-200 HR column (GE Healthcare) connected to a Bio-Rad DuoFlow FPLC. The column was calibrated with thyroglobulin (669 kDa), γ-globulin (158 kDa), ovalbumin (43 kDa), myoglobin (17 kDa), and vitamin B12 (1.35 kDa). All proteins were analyzed in BAD buffer (0.1 M Tris, 0.1 M KCl, 0.5 M arginine, 2.5 mM CHAPS, 5 mM TCEP, 10% glycerol, pH 8.5) at a flow rate of 0.02 mL/min at 4°C. Protein samples were concentrated to 800 μL and filtered through 0.2 μm filters before injection onto the size-exclusion column. For complex formation, equimolar mixtures of proteins were added to BAD buffer in a final volume of 800 μL and incubated on ice 30 min prior to injection onto the column.
# glucokinase (GCK) = assay: Chemical cross-linking (dimethyl pimelimidate) with GCK; assay type: binding, human; conditions: DMP, 50-fold molar excess, room temperature 1 h; 1:1 mixture, 40 μM protein; SDS-PAGE
# Protocol: Protein samples were cross-linked with dimethyl pimelimidate (DMP). Aqueous stocks of cross-linkers were added to protein samples in a 50-fold molar excess and incubated at room temperature 1 h. Mixtures contained 20 μM protein (GCK or BAD) or 40 μM protein (1:1 mixture of glucokinase and BAD) in BAD buffer (0.1 M Tris, 0.1 M KCl, 0.5 M arginine, 2.5 mM CHAPS, 5 mM TCEP, 10% glycerol, pH 8.5). Reactions were immediately separated on SDS-PAGE and visualized with Coomassie blue staining.
# human pancreatic GCK [4] = target: T2, human pancreatic GCK; assay: Size-exclusion chromatography of mixtures with GCK; assay type: binding; conditions: mixtures across a range of protein concentrations; BAD buffer pH 8.5, 4°C
# Protocol: as §2
# T3 sequence (Q07817 with tags, fused parts or gaps DEL45-84): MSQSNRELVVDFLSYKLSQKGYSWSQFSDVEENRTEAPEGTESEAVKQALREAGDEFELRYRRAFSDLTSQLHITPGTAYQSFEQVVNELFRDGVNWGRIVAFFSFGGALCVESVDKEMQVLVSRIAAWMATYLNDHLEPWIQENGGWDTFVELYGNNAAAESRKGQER
Molecule,"Effect on GCK kinetics under Szlyk et al. buffer conditions (GCK; S118D BADGST 5 μM, or pBH3 5 μM, 96 well plate, S2 Fig)",Effect on GCK Vmax (GCK; listed as phosphorylated BAD BH3 peptide),Effect on GCK Vmax (GCK; listed as phosphorylated BH3 peptide),"Molecular weight from sedimentation velocity (oligomerization state) ([1]; predicted monomer BAD-GST 47 kDa, dimer)","Frictional ratio f/f0 ([1]; sedimentation velocity, unity = compact sphere)",Complex with GCK by analytical ultracentrifugation (human pancreatic GCK [2]),"Aggregation, effect of refolding additives [3]",Complex formation with Bcl-xL by size-exclusion chromatography (Bcl-xL),Complex with GCK by chemical cross-linking (glucokinase (GCK)),Complex with GCK by size-exclusion chromatography (human pancreatic GCK [4])
"NLWAAQRYGRELRRM(p)SDKFVD [pBH3, 21-residue phosphorylated peptide containing the BH3 domain of BAD]",did not increase BAD’s effects on GCK kinetics,no statistically significant difference in the GCK Vmax value,lack of an increase in the GCK Vmax value,–,–,–,–,–,–,–
B1,–,–,–,98 kDa,3.9,does not reveal a higher molecular weight component indicative of complex formation,essential to prevent aggregation of recombinant BAD,"three peaks corresponding to monomeric Bcl-xL, the BAD-GST dimer, and the BAD-GST:Bcl-xL complex; also recorded: confirms formation of a higher molecular weight complex between BAD-GST and Bcl-xL",does not support the formation of a BAD-GST:GCK complex,No evidence of a higher molecular weight complex is observed; also recorded: provides no evidence of complex formation
